In PMC6010275 one finds rate of cleavage of a 10 nucleotide 5' flap by Pol I, with template-loaded β-clamp against without (denaturing gel) data, which are given here for one substance.

In the assay the target is β-clamp of the Escherichia coli replisome (E. coli) (UniProt P0A988).
Chain of UniProt P0A988 (P0A988 whole entry): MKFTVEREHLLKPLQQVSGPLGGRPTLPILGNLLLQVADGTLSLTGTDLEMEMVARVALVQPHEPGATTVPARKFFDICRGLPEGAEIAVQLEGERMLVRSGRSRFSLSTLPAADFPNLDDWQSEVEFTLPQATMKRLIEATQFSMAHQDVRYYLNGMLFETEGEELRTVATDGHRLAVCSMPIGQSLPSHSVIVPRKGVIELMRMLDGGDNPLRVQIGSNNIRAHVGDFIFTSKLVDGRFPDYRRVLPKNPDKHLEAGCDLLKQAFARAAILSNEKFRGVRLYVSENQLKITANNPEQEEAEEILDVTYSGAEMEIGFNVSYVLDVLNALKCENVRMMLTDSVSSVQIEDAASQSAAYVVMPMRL

As for “DNA polymerase I (from UniProt P00582 1-928) (enzyme)”, the rate of cleavage of a 10 nucleotide 5' flap by Pol I, with template-loaded β-clamp against without (denaturing gel) was 2.5 fold.
